Measured values as given in the supplement of paper PMC10065799, “High-throughput profiling of sequence recognition by tyrosine kinases and SH2 domains using bacterial peptide display” (eLife, 2023).

Assays:
SHP2-C SH2 = assay: SH2 binding enrichment of the phosphorylated peptide, bacterial display (enrichment ratio); higher = better substrate or ligand; peptides without Tyr show the background
c-Src SH2 = assay: as above
Grb2 SH2 = Grb2 SH2 (UniProt P62993); assay: as above
Fer (mouse) = assay: phosphorylation enrichment, bacterial display (enrichment ratio); higher = better substrate or ligand; peptides without Tyr show the background
c-Abl (mouse) = assay: as above
MERTK = MERTK (UniProt Q12866); assay: as above
Fyn = Fyn (UniProt P06241); assay: as above
EPHB2 = EPHB2 (UniProt P29323); assay: as above
Sequence of EPHB2 (P29323 whole entry, looked up): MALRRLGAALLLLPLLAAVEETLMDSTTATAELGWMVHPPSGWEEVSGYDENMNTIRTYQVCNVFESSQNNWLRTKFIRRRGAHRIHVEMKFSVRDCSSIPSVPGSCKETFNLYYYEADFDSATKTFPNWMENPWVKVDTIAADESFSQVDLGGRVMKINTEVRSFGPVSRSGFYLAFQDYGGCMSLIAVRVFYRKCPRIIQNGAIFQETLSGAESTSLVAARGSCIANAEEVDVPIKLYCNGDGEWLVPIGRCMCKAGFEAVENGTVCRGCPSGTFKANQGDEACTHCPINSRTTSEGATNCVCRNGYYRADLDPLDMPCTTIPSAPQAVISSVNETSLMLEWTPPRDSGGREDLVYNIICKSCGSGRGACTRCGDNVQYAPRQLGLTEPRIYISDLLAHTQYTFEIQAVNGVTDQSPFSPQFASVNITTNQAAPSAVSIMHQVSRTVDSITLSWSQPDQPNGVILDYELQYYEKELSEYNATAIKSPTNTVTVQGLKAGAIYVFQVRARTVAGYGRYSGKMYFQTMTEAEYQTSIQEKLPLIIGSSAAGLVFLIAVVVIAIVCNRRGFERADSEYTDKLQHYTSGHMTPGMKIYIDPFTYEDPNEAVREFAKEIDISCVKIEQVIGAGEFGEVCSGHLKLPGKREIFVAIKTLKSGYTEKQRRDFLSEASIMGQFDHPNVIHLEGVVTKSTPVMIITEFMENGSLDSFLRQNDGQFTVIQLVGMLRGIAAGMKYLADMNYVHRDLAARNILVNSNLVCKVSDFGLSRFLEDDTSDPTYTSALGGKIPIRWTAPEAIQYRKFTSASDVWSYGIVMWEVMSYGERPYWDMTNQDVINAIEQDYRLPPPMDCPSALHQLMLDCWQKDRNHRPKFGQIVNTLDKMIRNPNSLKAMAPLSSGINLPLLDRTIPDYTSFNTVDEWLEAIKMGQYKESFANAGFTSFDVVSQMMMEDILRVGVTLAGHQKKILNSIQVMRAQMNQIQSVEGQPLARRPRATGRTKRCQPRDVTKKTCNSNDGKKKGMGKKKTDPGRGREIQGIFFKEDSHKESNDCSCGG

FGFR3 = FGFR3 (UniProt P22607); assay: as above
Sequence of FGFR3 (P22607 whole entry, looked up): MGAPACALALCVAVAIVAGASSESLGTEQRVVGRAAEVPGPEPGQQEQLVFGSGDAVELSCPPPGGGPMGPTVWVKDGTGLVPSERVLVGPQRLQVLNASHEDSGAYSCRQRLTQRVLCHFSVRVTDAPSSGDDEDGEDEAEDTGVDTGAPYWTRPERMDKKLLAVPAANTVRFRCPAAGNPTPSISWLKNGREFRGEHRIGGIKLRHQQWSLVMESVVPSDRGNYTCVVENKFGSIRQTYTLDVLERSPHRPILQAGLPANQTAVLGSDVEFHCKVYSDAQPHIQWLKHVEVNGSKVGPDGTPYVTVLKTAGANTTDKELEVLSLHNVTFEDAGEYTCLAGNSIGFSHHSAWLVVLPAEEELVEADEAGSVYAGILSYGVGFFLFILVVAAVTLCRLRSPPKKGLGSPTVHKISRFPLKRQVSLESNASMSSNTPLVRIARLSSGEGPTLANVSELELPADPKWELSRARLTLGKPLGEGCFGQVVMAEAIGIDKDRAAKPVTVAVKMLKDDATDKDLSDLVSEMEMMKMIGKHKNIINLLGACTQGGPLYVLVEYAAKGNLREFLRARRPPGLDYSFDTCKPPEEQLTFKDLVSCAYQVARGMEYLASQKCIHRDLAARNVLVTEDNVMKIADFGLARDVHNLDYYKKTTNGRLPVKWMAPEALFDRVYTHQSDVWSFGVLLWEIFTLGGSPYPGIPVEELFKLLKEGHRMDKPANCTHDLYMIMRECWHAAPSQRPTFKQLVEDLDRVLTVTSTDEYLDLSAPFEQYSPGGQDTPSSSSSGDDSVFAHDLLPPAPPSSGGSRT

EPHB1 = EPHB1 (UniProt P54762); assay: as above
Hck = Hck (UniProt P08631); assay: as above
Sequence of Hck (P08631 whole entry, looked up): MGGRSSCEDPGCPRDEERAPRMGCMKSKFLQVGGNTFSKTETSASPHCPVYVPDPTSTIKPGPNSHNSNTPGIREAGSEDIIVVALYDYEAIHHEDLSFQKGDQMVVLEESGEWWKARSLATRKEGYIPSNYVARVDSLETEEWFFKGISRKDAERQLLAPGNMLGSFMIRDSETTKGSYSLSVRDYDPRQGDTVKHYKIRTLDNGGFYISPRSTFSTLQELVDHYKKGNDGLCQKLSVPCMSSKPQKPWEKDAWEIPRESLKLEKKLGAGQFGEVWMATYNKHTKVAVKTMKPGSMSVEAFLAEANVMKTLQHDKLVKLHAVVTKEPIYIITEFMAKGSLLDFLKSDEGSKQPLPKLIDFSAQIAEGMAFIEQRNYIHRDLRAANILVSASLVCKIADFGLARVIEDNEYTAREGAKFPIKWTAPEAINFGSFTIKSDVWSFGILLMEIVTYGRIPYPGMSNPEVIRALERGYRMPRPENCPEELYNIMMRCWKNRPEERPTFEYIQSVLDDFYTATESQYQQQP

AncSZ = assay: as above
Fes = Fes (UniProt P07332); assay: as above
Jak2 = Jak2 (UniProt O60674); assay: as above
Sequence of Jak2 (O60674 whole entry, looked up): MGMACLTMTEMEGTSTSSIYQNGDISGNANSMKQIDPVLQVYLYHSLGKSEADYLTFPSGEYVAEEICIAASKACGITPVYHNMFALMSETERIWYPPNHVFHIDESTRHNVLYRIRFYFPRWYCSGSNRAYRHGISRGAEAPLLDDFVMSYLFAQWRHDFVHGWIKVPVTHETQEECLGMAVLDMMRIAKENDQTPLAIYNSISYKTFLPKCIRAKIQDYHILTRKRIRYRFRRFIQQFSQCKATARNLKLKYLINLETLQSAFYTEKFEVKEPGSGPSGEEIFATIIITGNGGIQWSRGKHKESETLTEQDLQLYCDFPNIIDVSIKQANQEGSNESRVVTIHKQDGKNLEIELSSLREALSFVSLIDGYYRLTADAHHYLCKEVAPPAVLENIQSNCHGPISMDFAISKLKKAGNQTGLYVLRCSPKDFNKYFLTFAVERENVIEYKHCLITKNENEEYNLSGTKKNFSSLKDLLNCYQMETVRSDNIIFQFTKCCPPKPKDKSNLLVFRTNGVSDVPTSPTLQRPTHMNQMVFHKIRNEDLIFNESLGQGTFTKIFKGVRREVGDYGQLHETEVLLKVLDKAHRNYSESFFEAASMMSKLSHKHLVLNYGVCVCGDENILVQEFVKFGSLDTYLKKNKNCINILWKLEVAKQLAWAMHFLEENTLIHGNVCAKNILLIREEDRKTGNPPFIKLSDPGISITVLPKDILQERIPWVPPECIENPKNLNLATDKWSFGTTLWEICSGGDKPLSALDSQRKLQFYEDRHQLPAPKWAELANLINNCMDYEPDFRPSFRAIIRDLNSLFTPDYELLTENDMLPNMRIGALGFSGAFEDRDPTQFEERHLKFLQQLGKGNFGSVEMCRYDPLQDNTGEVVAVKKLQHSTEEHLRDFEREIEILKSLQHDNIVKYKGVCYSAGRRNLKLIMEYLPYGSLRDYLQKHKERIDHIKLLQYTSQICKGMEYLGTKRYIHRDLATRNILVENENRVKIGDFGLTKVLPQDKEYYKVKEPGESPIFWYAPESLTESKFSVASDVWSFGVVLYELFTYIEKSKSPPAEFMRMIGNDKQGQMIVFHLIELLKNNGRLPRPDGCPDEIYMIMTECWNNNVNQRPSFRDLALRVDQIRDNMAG

c-Src = assay: as above
FGFR1 = FGFR1 (UniProt P11362); assay: as above
Sequence of FGFR1 (P11362 whole entry, looked up, the tested form may be a part): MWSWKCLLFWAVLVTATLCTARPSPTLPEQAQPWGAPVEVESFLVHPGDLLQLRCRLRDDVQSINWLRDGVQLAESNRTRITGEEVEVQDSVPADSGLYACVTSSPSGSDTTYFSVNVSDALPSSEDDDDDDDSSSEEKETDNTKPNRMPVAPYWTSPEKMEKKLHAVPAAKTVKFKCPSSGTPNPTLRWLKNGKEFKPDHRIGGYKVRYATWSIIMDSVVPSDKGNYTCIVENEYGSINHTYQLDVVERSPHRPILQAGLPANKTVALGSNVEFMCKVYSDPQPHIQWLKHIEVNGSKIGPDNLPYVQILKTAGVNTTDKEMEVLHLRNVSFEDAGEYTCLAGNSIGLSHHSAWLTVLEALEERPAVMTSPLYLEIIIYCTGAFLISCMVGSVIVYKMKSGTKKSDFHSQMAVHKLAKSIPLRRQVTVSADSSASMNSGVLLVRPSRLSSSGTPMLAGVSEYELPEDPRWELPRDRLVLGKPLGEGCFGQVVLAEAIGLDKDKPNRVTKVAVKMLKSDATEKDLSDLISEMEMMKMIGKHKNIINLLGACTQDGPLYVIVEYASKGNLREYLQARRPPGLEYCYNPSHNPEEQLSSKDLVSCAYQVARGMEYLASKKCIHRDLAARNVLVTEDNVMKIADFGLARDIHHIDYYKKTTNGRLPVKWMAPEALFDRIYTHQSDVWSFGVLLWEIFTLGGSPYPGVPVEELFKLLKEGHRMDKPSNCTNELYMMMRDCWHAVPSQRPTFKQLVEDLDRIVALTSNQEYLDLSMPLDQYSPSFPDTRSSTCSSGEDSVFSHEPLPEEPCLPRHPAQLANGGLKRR
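Wherever SH2 binding enrichment of the phosphorylated peptide, bacterial display is given: peptide library displayed on the E. coli surface as eCPX fusions, selected cells deep-sequenced, score is each peptide's frequency after selection divided by its frequency in the input.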
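Wherever phosphorylation enrichment, bacterial display is given: 11-residue human phosphosite peptides and single-mutation variants displayed on the E. coli surface, counted by deep sequencing, each peptide's frequency after selection divided by its frequency in the unselected input library; frequency after pTyr selection over input frequency; kinase dosed for 20-30% of maximal phosphorylation in three min.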

Sequence of Grb2 SH2 (P62993 whole entry, looked up): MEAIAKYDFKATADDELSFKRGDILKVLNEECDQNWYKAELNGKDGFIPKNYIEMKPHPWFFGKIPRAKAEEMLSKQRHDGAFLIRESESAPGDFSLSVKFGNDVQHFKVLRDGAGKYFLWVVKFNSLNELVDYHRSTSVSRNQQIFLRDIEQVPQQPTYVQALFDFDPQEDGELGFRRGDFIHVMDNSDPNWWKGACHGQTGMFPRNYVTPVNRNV

| Sequence | SH2 binding enrichment (SHP2-C SH2) | SH2 binding enrichment (c-Src SH2) | SH2 binding enrichment (Grb2 SH2) | phosphorylation enrichment (Fer (mouse)) | phosphorylation enrichment (c-Abl (mouse)) | phosphorylation enrichment (MERTK) | phosphorylation enrichment (Fyn) | phosphorylation enrichment (EPHB2) | phosphorylation enrichment (FGFR3) | phosphorylation enrichment (EPHB1) | phosphorylation enrichment (Hck) | phosphorylation enrichment (AncSZ) | phosphorylation enrichment (Fes) | phosphorylation enrichment (Jak2) | phosphorylation enrichment (c-Src) | phosphorylation enrichment (FGFR1) |
| --- | --- | --- | --- | --- | --- | --- | --- | --- | --- | --- | --- | --- | --- | --- | --- | --- |
| DLNATYRTIQG [U2SURP_Y634] | 0.814 | 0.813 | 0.876 | 0.518 | 0.641 | 0.473 | 0.646 | 0.751 | 0.6 | 0.578 | 0.688 | 0.631 | 0.846 | 0.609 | 0.674 | 0.583 |
| VIVRMYDFHVL [RPF2_Y109_G106V_YF] | 1.28 | 1.12 | 1.75 | 4.04 | 0.885 | 1.87 | 0.555 | 1.55 | 0.597 | 1.33 | 0.488 | 1.08 | 1.01 | 0.901 | 0.473 | 0.462 |
| DSIRDYEDGTE [CLNS1A_Y214_M218T] | 0.67 | 0.577 | 0.829 | 0.766 | 1.02 | 0.959 | 0.602 | 0.565 | 0.988 | 0.784 | 0.57 | 1.55 | 1.58 | 1.35 | 1.1 | 0.511 |
| HFVDEYDRTIE [KRAS_Y32_P34R] | 0.682 | 1.14 | 1.06 | 0.794 | 1.36 | 0.58 | 0.653 | 0.805 | 0.932 | 0.875 | 0.701 | 2.01 | 1.66 | 1.67 | 0.989 | 0.644 |
| NNRVFYGNSDR [RS1_Y177] | 0.735 | 0.505 | 0.852 | 0.338 | 0.499 | 0.315 | 0.395 | 0.378 | 0.411 | 0.284 | 0.337 | 0.437 | 0.536 | 0.546 | 0.414 | 0.375 |
| RSRQIYDAFIM [GRK3_Y109_YF] | 0.592 | 0.64 | 0.66 | 9.57 | 9.12 | 7.46 | 8.83 | 2.6 | 0.7 | 2.49 | 6.86 | 0.51 | 0.48 | 0.359 | 6.12 | 0.339 |
| LSSEMCVKSYT [F5_Y2149_Y2149C] | 0.452 | 0.451 | 0.665 | 1.46 | 1.59 | 1.1 | 1.2 | 0.888 | 1.04 | 1.54 | 0.877 | 1.55 | 1.76 | 2.4 | 1.16 | 1.23 |
| LLQAEYWHDPI [PPT1_Y185_V181L] | 0.803 | 1.27 | 0.805 | 0.74 | 1.62 | 0.726 | 0.975 | 0.511 | 3.92 | 0.682 | 0.667 | 1.89 | 1.96 | 1.55 | 0.864 | 4.99 |
| YGMQLYQKYMH [GRB14_Y347_N349K] | 0.64 | 0.548 | 0.824 | 2.09 | 0.648 | 1.92 | 1.31 | 2.42 | 0.581 | 1.15 | 2.08 | 0.844 | 0.694 | 0.561 | 2.29 | 0.572 |
| TVQVAYFTVMM [SPATA17_Y83_M86V_YF] | 0.651 | 0.415 | 0.775 | 0.842 | 0.921 | 0.486 | 0.595 | 0.758 | 1.09 | 0.838 | 0.61 | 1.44 | 1.55 | 1.3 | 0.666 | 0.729 |
| FRDALYKFIVD [PHEX_Y250_M253I_YF] | 1.02 | 1.04 | 1.02 | 0.479 | 0.809 | 0.902 | 0.508 | 0.489 | 0.748 | 0.644 | 0.56 | 1.02 | 1.32 | 0.919 | 0.546 | 0.44 |
| SIKDKYVMALY [KCNH2_Y611_T613M] | 0.679 | 0.514 | 0.836 | 0.45 | 0.599 | 0.441 | 0.483 | 0.481 | 0.547 | 0.505 | 0.59 | 0.639 | 0.734 | 0.648 | 0.422 | 0.638 |
| ARLEYYENEKK [IRS1_Y47] | 0.888 | 9.04 | 1.34 | 0.491 | 0.808 | 0.571 | 0.595 | 0.506 | 0.733 | 0.686 | 0.482 | 1.08 | 1.01 | 0.849 | 0.528 | 0.592 |
| NAGAFYVLSTL [FLVCR2_Y325_A326V] | 0.6 | 0.489 | 0.634 | 0.525 | 0.69 | 0.705 | 0.464 | 0.573 | 0.699 | 0.55 | 0.476 | 1.03 | 1.17 | 0.995 | 0.523 | 0.483 |
| TWNPKYTLRSH [STRN3_Y474] | 0.883 | 0.943 | 1.11 | 0.378 | 0.473 | 0.409 | 0.426 | 0.468 | 0.54 | 0.399 | 0.492 | 0.614 | 0.74 | 0.524 | 0.348 | 0.433 |
| LDAFIYDAAVL [GRIN2A_Y730] | 0.935 | 0.519 | 1.14 | 20.3 | 6.28 | 3.04 | 9.56 | 3 | 0.868 | 2.63 | 7.32 | 1.18 | 1.53 | 0.827 | 6.55 | 0.879 |
| DMGAQYAAASR [ARID1B_Y483_P488R] | 0.553 | 0.612 | 0.761 | 0.393 | 0.644 | 0.31 | 0.37 | 0.375 | 0.396 | 0.371 | 0.402 | 0.575 | 0.54 | 0.49 | 0.365 | 0.357 |

| Sequence | SH2 binding enrichment (SHP2-C SH2) | SH2 binding enrichment (c-Src SH2) | SH2 binding enrichment (Grb2 SH2) | phosphorylation enrichment (Fer (mouse)) | phosphorylation enrichment (c-Abl (mouse)) | phosphorylation enrichment (MERTK) | phosphorylation enrichment (Fyn) | phosphorylation enrichment (EPHB2) | phosphorylation enrichment (FGFR3) | phosphorylation enrichment (EPHB1) | phosphorylation enrichment (Hck) | phosphorylation enrichment (AncSZ) | phosphorylation enrichment (Fes) | phosphorylation enrichment (Jak2) | phosphorylation enrichment (c-Src) | phosphorylation enrichment (FGFR1) |
| --- | --- | --- | --- | --- | --- | --- | --- | --- | --- | --- | --- | --- | --- | --- | --- | --- |
| FEEVVYQAMEE [TACC3_Y684] | 0.883 | 0.504 | 0.755 | 1.21 | 1.62 | 0.744 | 2.12 | 0.737 | 0.955 | 0.838 | 1.74 | 1.86 | 1.54 | 1.35 | 3.34 | 0.621 |
| GGQSVYHVNLH [HINT1_Y109_H112N] | 0.663 | 0.491 | 0.698 | 0.337 | 0.491 | 0.387 | 1.01 | 0.364 | 0.376 | 0.495 | 0.583 | 0.583 | 0.617 | 0.491 | 1.03 | 0.429 |
| STFVPCEIKVQ [L1CAM_Y784_Y784C] | 0.578 | 0.497 | 0.819 | 0.669 | 1.04 | 0.386 | 0.49 | 0.727 | 1.05 | 0.685 | 0.589 | 1.3 | 1.61 | 1.39 | 0.444 | 0.579 |
| GIVEEYQLPFF [BMPR1A_Y453_YF] | 0.629 | 0.438 | 0.799 | 0.587 | 2.24 | 0.588 | 0.591 | 0.724 | 0.822 | 0.599 | 0.604 | 3.31 | 1.35 | 1.34 | 0.746 | 0.812 |
| LPVHFYGHVEH [PYGM_Y204] | 1.01 | 1.48 | 1.2 | 1.9 | 1.26 | 1.07 | 1.58 | 0.889 | 1.66 | 1.33 | 0.935 | 1.68 | 1.74 | 1.63 | 0.803 | 1.54 |
| DLDLTYIFPNI [PTEN_Y27_YF] | 0.547 | 0.329 | 0.738 | 0.56 | 1.17 | 3.52 | 6.27 | 1.15 | 2.77 | 2.03 | 1.76 | 4.58 | 1.34 | 2.57 | 3.89 | 3.31 |
| LVRAFYCERRW [CARD11_Y970_R975W] | 0.681 | 0.49 | 0.953 | 0.59 | 0.695 | 0.64 | 0.649 | 0.623 | 0.697 | 0.671 | 0.634 | 1.05 | 0.745 | 0.857 | 0.489 | 0.575 |
| SCRSKYVGLWG [KCNQ1_Y184_G179S] | 0.721 | 0.866 | 1.18 | 0.465 | 0.541 | 0.451 | 0.419 | 0.497 | 0.456 | 0.39 | 0.423 | 0.665 | 0.984 | 0.574 | 0.509 | 0.364 |
| WQQQSYLYSGI [CTNNB1_Y30_D32Y] | 0.687 | 1.37 | 0.972 | 5.61 | 0.851 | 7.49 | 7.05 | 5.03 | 1.03 | 3.97 | 7.73 | 1.16 | 1.48 | 1.52 | 5.93 | 1.07 |
| ERTIEYLEEVA [HADHA_Y239] | 0.637 | 0.513 | 0.774 | 0.663 | 0.863 | 0.541 | 0.722 | 0.704 | 0.845 | 0.593 | 0.622 | 1.28 | 1.35 | 1.2 | 0.521 | 0.608 |
| EEAAGYAQESQ [CAMKV_Y491] | 0.718 | 0.577 | 1.05 | 0.547 | 0.935 | 0.325 | 0.401 | 0.543 | 0.691 | 0.523 | 0.661 | 1.22 | 1.39 | 1.2 | 0.604 | 0.545 |
| KREPQYSSHSS [SIPA1L3_Y1265_G1261R] | 0.885 | 0.549 | 0.973 | 0.401 | 0.486 | 0.452 | 0.338 | 0.306 | 0.376 | 0.423 | 0.362 | 0.559 | 0.629 | 0.43 | 0.506 | 0.377 |
| LPKEQYLFTKE [AFG3L2_Y614_YF] | 1.06 | 0.762 | 0.911 | 0.817 | 0.551 | 0.499 | 1.59 | 0.471 | 1.51 | 1.2 | 0.996 | 0.83 | 1.49 | 0.532 | 0.406 | 0.623 |
| DSYWSYCNAVA [SLC20A2_Y436_S434W] | 0.649 | 0.817 | 1.02 | 0.644 | 1.45 | 0.952 | 5.46 | 1.93 | 2.42 | 2.64 | 3.31 | 1.43 | 1.12 | 1.27 | 4.44 | 4.16 |
| FGGLRYGFGGL [KRTAP20-2_Y13_V17G_YF] | 0.762 | 0.601 | 0.903 | 0.431 | 0.553 | 0.37 | 0.389 | 0.448 | 0.536 | 0.445 | 0.465 | 0.739 | 1.08 | 0.664 | 0.379 | 0.672 |
| KLIETCFSKNF [PLP1_Y50_Y50C_YF] | 0.561 | 0.482 | 0.849 | 0.504 | 0.826 | 0.405 | 0.413 | 0.523 | 0.725 | 0.581 | 0.492 | 1.14 | 1.23 | 1.06 | 0.476 | 0.47 |
